Results published in patent publication US20200087363A1 (IMMATICS BIOTECHNOLOGIES, published 2020).

What follows are binders tested against T1, HLA-B*44:05 (human) (assay: UV peptide exchange, anti-b2m ELISA).
T1 construct: also called peptide-receptive MHC class I molecule
Protocol: Only peptide candidates that can effectively bind and stabilize the peptide-receptive MHC molecules prevent dissociation of the MHC complexes. To determine the yield of the exchange reaction, an ELISA was performed based on the detection of the light chain (β2m) of stabilized MHC complexes. The assay was performed as generally described in Rodenko et al. (Rodenko et al., 2006)
96 well MAXISorp plates (NUNC) were coated over night with 2 ug/ml streptavidin in PBS at room temperature, washed 4× and blocked for 1 h at 37° C. in 2% BSA containing blocking buffer. […] Peptide-MHC monomers of the UV-exchange reaction were diluted 100-fold in blocking buffer. Samples were incubated for 1 h at 37° C., washed four times, incubated with 2 ug/ml HRP conjugated anti-β2m for 1 h at 37° C., washed again and detected with TMB solution that is stopped with […]. Absorption was measured at 450 nm.

Row | Binder | peptide exchange yield
1 | QELFLHPVL | > 75%
2 | AEIEADRSYQH | 50 to 75%
3 | TEDARHPESW | > 75%
4 | EKGLISAF | 20 to 50%
5 | VEAQDRETW | 20 to 50%
6 | KEVDPASNTYTL | 20 to 50%
7 | MEAELVRRI | 50 to 75%
8 | TELTEARVQVW | 50 to 75%
9 | IEIILLSGSL | > 75%
10 | MEELRMLSF | 50 to 75%
11 | SEIYQPRGF | 50 to 75%
12 | RMLSFQQMTW | 20 to 50%
13 | SEASQSPQY | 50 to 75%
14 | NESDRLVYF | 50 to 75%
15 | YENIPVDKV | 50 to 75%
16 | KESDAGRYY | 50 to 75%
17 | KESDAGKYY | 50 to 75%
18 | GESVSWHLF | 50 to 75%
19 | EEIEAHIAL | 50 to 75%
20 | IEAYLERIGY | 50 to 75%
21 | VEEERYTGQW | 50 to 75%

Row | Binder | peptide exchange yield
22 | SEVPVDSHYY | 50 to 75%
23 | EEAMKRLSY | 20 to 50%
24 | AESFTSGRHYW | > 75%
25 | EEQDFINNRY | > 75%
26 | EVEVGEVKSW | 10 to 20%
27 | SEVPVDSHY | 50 to 75%
28 | RESHLTEIRQY | 20 to 50%
29 | REMFVFKDQW | > 75%
30 | TELQIPSF | 20 to 50%
31 | VEVKYEGHW | > 75%
32 | EEMPEEIHL | 50 to 75%
33 | REYQEVMNSKL | 50 to 75%
34 | KEVDPTGHSF | 50 to 75%
35 | AETENRYCV | 50 to 75%
36 | HEIIIRSHW | 50 to 75%
37 | AEANPRDLGASW | 50 to 75%
38 | QEPFTRPVL | 50 to 75%
39 | EMPGGPVW | 50 to 75%
40 | GESSEVKAVL | 50 to 75%
41 | QEIDQKRLEF | 20 to 50%
42 | KEAPNIVTL | > 75%

Now from value to binder:

Row | peptide exchange yield | Binder
43 | 20 to 50% | EEVQDGKVI
44 | 20 to 50% | NEAGEMIKHY
45 | > 75% | VEVNGVPRW
46 | > 75% | KEHNSSVPWSS
47 | 50 to 75% | SEKWFRMGF
48 | 50 to 75% | IEIKDRLQL
49 | 20 to 50% | SEVFHVSEA
50 | 10 to 20% | VTEGAVEVKY
51 | > 75% | NENLDYAIL
52 | 20 to 50% | MEFKTLNKN
53 | 10 to 20% | IEAPKLMVV
54 | 50 to 75% | RYFDENIQKFIW
55 | 50 to 75% | HENLIEDF
56 | 50 to 75% | EAYDIELNKW
57 | 20 to 50% | TEHSGIYSC
58 | 20 to 50% | WEVVHTVF
59 | 50 to 75% | QEAPRPASSL
60 | 20 to 50% | AETEPERHLG
61 | 50 to 75% | AESDFSNNML
62 | 20 to 50% | AEDEDGKIVGY
63 | 20 to 50% | DEDGKIVGY
64 | 50 to 75% | AEIATTGQLY
65 | 20 to 50% | EELRMLSF
66 | 50 to 75% | LEVLHQGQW
67 | 20 to 50% | SQDVAGTTF
68 | 20 to 50% | DEINHQSL
69 | > 75% | QEIDRGQYI
70 | 20 to 50% | EEGPSVPKIY
